Patent US20060084135

Target: T1, p53-382 acetylated peptide (Fluor de Lys-SIRT1), RHKK(Ac)
T1 chain: RHKK

B1: recombinant human SIRT1 (protein)
chain: MADEAALALQPGGSPSAAGADREAASSPAGEPLRKRPRRDGPGLERSPGEPGGAAPEREVPAAARGCPGAAAAALWREAEAEAAAAGGEQEAQATAAAGEGDNGPGLQGPSREPPLADNLYDEDDDDEGEEEEEAAAAAIGYRDNLLFGDEIITNGFHSCESDEEDRASHASSSDWTPRPRIGPYTFVQQHLMIGTDPRTILKDLLPETIPPPELDDMTLWQIVINILSEPPKRKKRKDINTIEDAVKLLQECKKIIVLTGAGVSVSCGIPDFRSRDGIYARLAVDFPDLPDPQAMFDIEYFRKDPRPFFKFAKEIYPGQFQPSLCHKFIALSDKEGKLLRNYTQNIDTLEQVAGIQRIIQCHGSFATASCLICKYKVDCEAVRGDIFNQVVPRCPRCPADEPLAIMKPEIVFFGENLPEQFHRAMKYDKDEVDLLIVIGSSLKVRPVALIPSSIPHEVPQILINREPLPHLHFDVELLGDCDVIINELCHRLGGEYAKLCCNPVKLSEITEKPPRTQKELAYLSELPPTPLHVSEDSSSPERTSPPDSSVIVTLLDQAAKSNDDLDVSESKGCMEEKPQEVQTSRNVESIAEQMENPDLKNVGSSTGEKNERTSVAGTVRKCWPNRVAKEQISRRLDGNQYLFLPPNRYIFHGAEVYSDSEDDVLSSSSCGSNSDSGTCQSPSLEEPMEDESEIEEFYNGLEDEPDVPERAGGAGFGTDGDDQEAINEAISVKQEVTDMNYPSNKS
For B1, the “Km (+100 µM resveratrol), SIRT1 initial rate vs p53-382 acetylated peptide concentration at 3 mM NAD+” value was “Km(+resveratrol, Δ)=1.8 µM”, the “Km (control), SIRT1 initial rate vs p53-382 acetylated peptide concentration at 3 mM NAD+” value was “Km(control, ▪)=64 µM” and the “fold decrease of the acetylated peptide Km with 100 µM resveratrol” value was “Its effect on the acetylated peptide Km was particularly striking, amounting to a 35-fold decrease”.
